In experiment [1] the target is T1, human ASGR-1 (on CHO-S cells) (human, UniProt P07306).
T1 chain: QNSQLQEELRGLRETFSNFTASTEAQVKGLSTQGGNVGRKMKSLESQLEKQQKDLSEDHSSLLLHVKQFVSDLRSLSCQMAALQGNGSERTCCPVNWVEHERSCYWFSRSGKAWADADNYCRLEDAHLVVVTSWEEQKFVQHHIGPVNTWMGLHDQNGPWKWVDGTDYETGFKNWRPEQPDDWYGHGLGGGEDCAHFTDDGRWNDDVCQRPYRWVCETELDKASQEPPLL
Nature of the experiment: competition, FACS, GalNAc-PAA.

The target in experiment [2] is T1, human ASGR-1 (on CHO-S cells). The experiment in a line: competition, FACS, asialofetuin.

B1: 4A2 (antibody, V domains shown)
VH: QVQLVQSGTEVKKPGASVKVSCKASGYTFTNYDINWVRQATGQGLEWMGWMHPNSGNTGYAQKFQGRVTLTRDTSISTAYMELSSLRSEDTAVYYCASSSGWYYFDYWGQGTLVTVSS
VL: DIVMTQSPDSLAVSLGERATINCKSSQSILHSSNNNNYLAWFQQKPGQPPKLLLYWASTRESGVPDRFSGSGSGTDFTLTISSLQPEDVAVYYCQQYYNTPVTFGPGTKVGIK
As usually defined, the IC50 is the concentration that inhibits the measured activity by half. A lower IC50 goes with inhibition by little substance. Regarding B1, the IC50 in experiment [1] came out at 54 nM; in experiment [2], 11 nM.

B2: 194C10 (antibody, V domains shown)
VH: QVQLQQWGAGLLKPSETLSLTCAVSGGSFRYYYWSWIRQPPGKGLEWFGEINHSGSTNYNPSLKSRVTISIDTSKNQFSLKLRSVTAADTAVYYCARDYGAFDIWGQGTMVTVSS
VL: EIVLTQSPGTLSLSPGERATLSCRASPSVNSGYLAWYQQKPGQTPRLLIFGASSRATGIPDRFSASGSGADFTLTISRLEPEDFAVYFCQQYESSPWTFGQGTKVEIK
Take B2: the IC50 came to 87 nM in experiment [1] and 30 nM in experiment [2].

B3: 176H4 (antibody, V domains shown)
VH: QVQLVESGGGVVQPGRSLRLSCAASGFTFSSYGMHWVRQAPGKGLEWVAIIWYDGSYKYYADSVKGRFTISRDNSKNTLYLQMSSLRAEDTAVYYCARDAHDFWSGYFAYWGQGALVTVSS
VL: DIVMTQTPLSLSVTPGQPASISCKSSQSLLHGDGKTYLYWYLQKPGQPPQLLIYEVSNRFSGVPDRFSGSGSGTDFTLKISRVEAEDVGIYYCMQSIQIPWTFGQGTRVEIK
Turning to B3, the 50% inhibitory concentration (IC50) was found to be 73 nM in experiment [1] and 59 nM in experiment [2].

B4: 5E5 (antibody, V domains shown)
VH: QVQLVESGGGVVQPGRSLRLSCAASGFTFSNYVMHWVRQAPGKGLEWVAVIWYDGSNKYYADSVKGRFTISRDNSKNTLYLQMNSLRAEDTAVYYCTREVYSSGWYDYGMDVWGQGTTVTVSS
VL: DIQMTQSPSSLSASVGDRVTITCRASQGIRNDLGWYQQKPGKAPKRLIYAASSLQSGVPSRFSGSGSGTEFTLTISSLQPEDFATYYCLQHYSYPRTFGQGTKVEVK
Consider B4, for which the IC50 was more than 200 nM in experiment [1] and 16 nM in experiment [2].

B5: 22G5 (antibody, V domains shown)
VH: EVQLLESGGGLVQPGGSLRLSCAASGFTFSSYAMNWVRQAPGMGLEWVSVISRSGGYTYYADSVKGRFTISRDNSKNTLYLQMNSLRAEDTAVYYCASRLAVAGSEAFDIWGQGTLVTVSS
VL: DIQMTQSPSSLSASVGDRVTITCRASQNISSYLNWYQQKQGKAPKLLIYAASSLQNGVPSRFSGRGSGTDFTLTISSLQPEDFATYYCQQSYRTPLFTFGPGTKVDFK
B5: the values for the IC50 in experiment [1] and in experiment [2] were 11 nM and 3.4 nM, respectively.

The values above are taken from patent publication EP4435105.
